{"source": "patent US20090092600A1", "about": "(Dana-Farber, published 2009)", "biological_target": "T1, GST (glutathione-S-transferase) (UniProt P08515 1-218 = GST)", "T1 construct": "Control protein in the GST pull-down", "T1 sequence (P08515 whole entry)": "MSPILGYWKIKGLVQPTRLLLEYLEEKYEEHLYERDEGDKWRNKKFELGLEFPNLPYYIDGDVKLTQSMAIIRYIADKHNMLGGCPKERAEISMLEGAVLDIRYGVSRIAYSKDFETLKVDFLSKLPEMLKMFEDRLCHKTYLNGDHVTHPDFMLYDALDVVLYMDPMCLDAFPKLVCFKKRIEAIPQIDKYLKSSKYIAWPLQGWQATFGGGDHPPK", "assay": "GST pull-down on glutathione beads, immunoblot with anti-His or anti-MUC1-C", "method": "The binding of MUC1 to HSF1 could be direct or indirect, for example, through a third protein. To determine if the interaction between MUC1 and HSF1 is a direct, physical interaction, in vitro binding assays was performed. GST- and GST-STAT3 polypeptides were incubated with purified His-tagged MUC1-CD (similar to GST-HSF1-His-MUC1 experiments described above). The protein mixtures were then incubated with glutathione beads, which bind to the GST proteins and associated binding partners if present. The glutathione bead adsorbates were washed and immunoblotted with antibodies specific for His tags or to MUC1-C (as described above). His-tagged MUC1 was present in GST-STAT3 adsorbates but not GST-adsorbates.", "data": [{"binder": "His-tagged MUC1-CD (MUC1 cytoplasmic domain) (other, Purified recombinant protein; also called His-MUC1; not shown: His tag) CQCRRKNYGQLDIFPARDTYHPMSEYPTYHTHGRYVPPSSTDRSPYEKVSAGNGGSSLSYTNPAVAAASANL", "values": [{"measurement": "binding result", "value": "no binding"}]}]}
